Assay results reported in publication PMC5739537, “Computationally-driven identification of antibody epitopes” (eLife, 2017).

B1: PB11 scFv-Fc (scFv, V domains shown)
VH: QVQLVQSGAEVKKPGASVKISCKASGYTLGTYTLHWMRQAPGQRIEWMGWINPGNGYTKYSQRFQGRVTINRDTSATTTYMELSSLRSEDTAVYFCATDRAPVRRAFDIWGQGTMVTVSS
VL: QSVLTQPASVSGSPGQSVTISCTGTSSDIGSYKFVSWYQHHPGKAPKLMIYDVTQRPSGVPYRFSGSKSGNTASLTISGLQAEDEADYYCCSYAGDYTYALFGGGTQLTVL
notes: Used as scFv-Fc in the staining
B2: TZ47 (antibody, V domains shown)
VH: QVQLQQSGAELMKPGASVKLSCKATGYTFTGYWIEWIKQRPGHGLEWIGEILPGTGSTNYNEKFKGKATFTADTSSNTAYMQLSSLTTEDSAIYYCAIPGPMDYWGQGTSVTVSS
VL: DIKMTQSPSSMYASLGERVTITCKASQDINSYLSWFQQKPGKSPKTLIYRANRLVDGVPSRFSGSGSGQDYSLTISSLEYEDMGIYYCLQYDEFPYTFGGGTKLEIK
notes: Murine antibody; detected with an anti-mouse AlexaFluor488 secondary antibody

Biological target: T1, B7H6 (wild type) (human, UniProt Q68D85)
T1 construct: B7H6, human tumor antigen; complete extracellular and transmembrane domains; The results call it the full-length transmembrane protein, the methods complete extracellular and transmembrane domains; also called WT B7H6; WT Ag; source: HEK-293F, transfected (pPPI4 surface expression vector, polyethyleneimine), on the cell surface
Assay: flow cytometry on cells; HEK-293F cells expressing WT B7H6 or designed variants, 2.5x10^5 cells/well; 100 nM TZ47, PB11 scFv-Fc or NKp30-Ig for 1 hr in PBS + 0.1% BSA; Anti-Mouse-AlexaFluor488 or Anti-Hu-AlexaFluor647 secondary Abs; integrated MFI normalised to NKp30-Ig binding and to WT B7H6; triplicate wells
Conditions: one partner purified

T1 sequence (Q68D85 25-262): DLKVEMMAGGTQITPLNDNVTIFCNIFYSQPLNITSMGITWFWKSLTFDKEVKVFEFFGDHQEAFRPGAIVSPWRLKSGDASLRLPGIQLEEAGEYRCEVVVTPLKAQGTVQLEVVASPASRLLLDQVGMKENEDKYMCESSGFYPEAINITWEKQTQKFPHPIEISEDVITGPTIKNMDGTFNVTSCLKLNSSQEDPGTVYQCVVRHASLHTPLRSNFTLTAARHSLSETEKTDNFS

Binder	binding result
B1	binds
B2	binds
